A short description of the series: self-splicing fitness, log relative to wild type (ln ratio); higher = more splicing; Tetrahymena group I intron in knt gene, E. coli kanamycin selection, DiMSum; sequences stand for … in CUCUCU…GGAGGGAAAAGUUAUCAGGCAUGCACCUGGUAGCUAGUCUUUAAACCAAUAGAUUGCAUCGGUUUAAAAGGCAAGACCGUCAAAUUGCGGGAAAGGGGUCAACAGCCGUUCAGUACCAAGUCUCAGGGGAAACUUUGAGAUGGCCUUGCAAAGGGUAUGGUAAUAAGCUGACGGACAUGGUCCUAACCACGCAGCCAAGUCCUAAGUCAACAGAUCUUCUGUUGAUAUGGAUGCAGUUCACAGACUAAAUGUCGGUCGGGGAAGAUGUAUUCUUCUCAUAAGAUAUAGUCGGACCUCUCCUUAAUGGGAGCUAGCGGAUGAAGUGAUGCAACACUGGAGCCGCUGGGAACUAAUUUGUAUGCGAAAGUAUAUUGAUUAGUUUUGGAGUACUCGUGGUCG
In outline: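 Colonies from six replicate transformations of E. coli BL21(DE3) were pooled and amplicon-sequenced on an Illumina HiSeq 2500. The library placed an intron with all eight P1ex-region nucleotides randomised inside the knt kanamycin-resistance gene on pET-22b(+), and cells grew overnight at 37°C or 30°C on LB agar with or without 25 μg/mL kanamycin (plus 100 μg/mL carbenicillin, 50 μM IPTG, 0.2% rhamnose). Fitness is the DiMSum error-weighted combination of wild-type-normalised replicate fold changes, kanamycin versus none.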

From the supplement of paper PMC7877785 come the findings set out here.

± gives the uncertainty stated by the source.

For the sequence GAUCAGCAAUAUUACGACAG, the “self-splicing fitness (ln)” value reads like this: (30 °C) -3.24 ± 0.23; (37 °C) -1.49 ± 0.28.
With UUAAAGCAAUAUUACGCUAA, the “self-splicing fitness (ln)” value was -0.626 ± 0.1 (30 °C) and -0.111 ± 0.12 (37 °C).
Taken in the same sequence, the figures for CGACAGCAAUAUUACGCAUA were -3.03 ± 0.18 and -2.33 ± 0.18.
Taken in the same sequence, the figures for CUUAAGCAAUAUUACGUCUA were -3.67 ± 0.25 and -2.97 ± 0.23.
For GAUGAGCAAUAUUACGGCCA the same measures were -2.11 ± 0.44 and -0.871 ± 0.24.
CCCGAGCAAUAUUACGCACC: the “self-splicing fitness (ln)” value by setting is: (30 °C) -3.46 ± 0.28; (37 °C) -2.35 ± 0.4.
Taken in the same sequence, the figures for AACAAGCAAUAUUACGCGUG were -1.35 ± 0.04 and -0.814 ± 0.056.
Taken in the same sequence, the figures for CUACAGCAAUAUUACGGUGC were -4.58 ± 0.28 and -2 ± 0.17.
Taken in the same sequence, the figures for AGCAAGCAAUAUUACGUGCA were -0.675 ± 0.058 and 0.058 ± 0.077.
As to AAACAGCAAUAUUACGGACG, the “self-splicing fitness (ln)” value was -2.25 ± 0.087 (30 °C) and -0.676 ± 0.097 (37 °C).
Taken in the same sequence, the figures for GCGAAGCAAUAUUACGGGGG were -2.43 ± 0.24 and -2.48 ± 0.34.
With UUACAGCAAUAUUACGACAC, the “self-splicing fitness (ln)” value (30 °C) is -3.53 ± 0.43.
Regarding AGAUAGCAAUAUUACGCCAG, the “self-splicing fitness (ln)” value reads like this: (30 °C) -3.6 ± 0.5; (37 °C) -1.78 ± 0.39.
Turning to CUUAAGCAAUAUUACGCGAU, the “self-splicing fitness (ln)” value reads like this: (30 °C) -1.91 ± 0.19; (37 °C) -0.837 ± 0.18.
Consider UGUGAGCAAUAUUACGUACG, for which the “self-splicing fitness (ln)” value is, setting by setting: (30 °C) -0.814 ± 0.1; (37 °C) -0.164 ± 0.12.
Turning to UUAGAGCAAUAUUACGCGAC, the “self-splicing fitness (ln)” value (30 °C) is -3.78 ± 0.37.
AGUAAGCAAUAUUACGUGAA: the “self-splicing fitness (ln)” value is -3.24 ± 0.15 (30 °C) and -1.68 ± 0.13 (37 °C).
On to AUCUAGCAAUAUUACGUCGA, for which the “self-splicing fitness (ln)” value is -1.39 ± 0.11 (30 °C) and -0.769 ± 0.12 (37 °C).
As to GAUAAGCAAUAUUACGAUAC, the “self-splicing fitness (ln)” value (30 °C) is -1.52 ± 0.18 and the “self-splicing fitness (ln)” value (37 °C) was -1.63 ± 0.27.
In the case of UUUAAGCAAUAUUACGCGUG, the “self-splicing fitness (ln)” value (30 °C) is -1.15 ± 0.13 and the “self-splicing fitness (ln)” value (37 °C) was -0.368 ± 0.14.
For GACGAGCAAUAUUACGUUGG the same measures were -3.34 ± 0.12 and -3.25 ± 0.22.
Taken in the same sequence, the figures for CUUCAGCAAUAUUACGUACU were -4.13 ± 0.19 and -2.8 ± 0.19.
As for CUUGAGCAAUAUUACGAUAC, the “self-splicing fitness (ln)” value (30 °C) was -3.57 ± 0.42.
As for CUUAAGCAAUAUUACGAUCA, the “self-splicing fitness (ln)” value runs as follows: (30 °C) -2.93 ± 0.26; (37 °C) -3.2 ± 0.33.
For UAUCAGCAAUAUUACGAUAC the same measures were -3.07 ± 0.28 and -1.85 ± 0.25.
For AAUAAGCAAUAUUACGAAUA the same measures were -1.54 ± 0.13 and -1.62 ± 0.15.
Take CCCCAGCAAUAUUACGCCUU: the “self-splicing fitness (ln)” value is -3 ± 0.22 (30 °C) and -2.4 ± 0.37 (37 °C).
Regarding UUCUAGCAAUAUUACGUGGC, the “self-splicing fitness (ln)” value (30 °C) is -3.1 ± 0.24.
On to AUUUAGCAAUAUUACGGUUA, for which the “self-splicing fitness (ln)” value is, setting by setting: (30 °C) -0.84 ± 0.16; (37 °C) -0.183 ± 0.13.
As to GUUCAGCAAUAUUACGUCAC, the “self-splicing fitness (ln)” value is -1.78 ± 0.17 (30 °C) and -1.27 ± 0.17 (37 °C).
For AACGAGCAAUAUUACGCCGA, the “self-splicing fitness (ln)” value is, setting by setting: (30 °C) -2.83 ± 0.25; (37 °C) -2.42 ± 0.17.
For CGGUAGCAAUAUUACGAGGA the same measures were -3.34 ± 0.46 and -1.75 ± 0.29.
Taken in the same sequence, the figures for CCAGAGCAAUAUUACGGGUG were -1.52 ± 0.072 and -0.654 ± 0.096.
As to GUUCAGCAAUAUUACGACUC, the “self-splicing fitness (ln)” value (30 °C) was 0.0553 ± 0.47.
With AGUGAGCAAUAUUACGUUGU, the “self-splicing fitness (ln)” value runs as follows: (30 °C) -4.07 ± 0.19; (37 °C) -1.78 ± 0.14.
UACAAGCAAUAUUACGCGUA: the “self-splicing fitness (ln)” value runs as follows: (30 °C) -2.92 ± 0.24; (37 °C) -2.76 ± 0.33.
With GACCAGCAAUAUUACGAUCC, the “self-splicing fitness (ln)” value was -1.93 ± 0.14 (30 °C) and -1.27 ± 0.17 (37 °C).
For CAAUAGCAAUAUUACGACGU, the “self-splicing fitness (ln)” value is, setting by setting: (30 °C) -2.06 ± 0.11; (37 °C) -0.956 ± 0.11.
Taken in the same sequence, the figures for GUGAAGCAAUAUUACGACAG were -2.07 ± 0.16 and -1.25 ± 0.17.
Taken in the same sequence, the figures for AGUCAGCAAUAUUACGAAUG were -1.62 ± 0.09 and -0.853 ± 0.11.
As to CGGUAGCAAUAUUACGGCAU, the “self-splicing fitness (ln)” value is, setting by setting: (30 °C) -2.98 ± 0.32; (37 °C) -2.11 ± 0.22.
Taken in the same sequence, the figures for CGAAAGCAAUAUUACGACUC were -2.84 ± 0.14 and -1.63 ± 0.14.
Consider ACUUAGCAAUAUUACGCGGA, for which the “self-splicing fitness (ln)” value is, setting by setting: (30 °C) -2.36 ± 0.11; (37 °C) -0.613 ± 0.088.
On to CGCCAGCAAUAUUACGUAGC, for which the “self-splicing fitness (ln)” value was -2.36 ± 0.17 (30 °C) and -3.11 ± 0.33 (37 °C).
Taken in the same sequence, the figures for CCACAGCAAUAUUACGAGCG were -0.707 ± 0.048 and 0.184 ± 0.065.
For GGGUAGCAAUAUUACGUCUU the same measures were -0.106 ± 0.1 and 0.268 ± 0.14.
Taken in the same sequence, the figures for GGACAGCAAUAUUACGGUGA were -0.838 ± 0.063 and -0.167 ± 0.071.
Regarding AUGGAGCAAUAUUACGCAUC, the “self-splicing fitness (ln)” value runs as follows: (30 °C) -3.74 ± 0.14; (37 °C) -3.29 ± 0.26.
Taken in the same sequence, the figures for CAAUAGCAAUAUUACGUCUG were -0.324 ± 0.1 and -0.58 ± 0.13.
Taken in the same sequence, the figures for CCAAAGCAAUAUUACGCAGC were -3.4 ± 0.26 and -2.49 ± 0.33.
Turning to GCUCAGCAAUAUUACGAACA, the “self-splicing fitness (ln)” value is, setting by setting: (30 °C) -0.688 ± 0.088; (37 °C) -0.676 ± 0.1.
Taken in the same sequence, the figures for UUUAAGCAAUAUUACGCGCU were -1.15 ± 0.18 and -0.609 ± 0.2.
For GUCAAGCAAUAUUACGGGCA the same measures were -3.61 ± 0.41 and -2.97 ± 0.3.
For GUCCAGCAAUAUUACGUUUG the same measures were -2.85 ± 0.11 and -0.981 ± 0.1.
In the case of UUGAAGCAAUAUUACGUAGA, the “self-splicing fitness (ln)” value reads like this: (30 °C) -1.28 ± 0.12; (37 °C) -0.894 ± 0.15.
Taken in the same sequence, the figures for AGGCAGCAAUAUUACGUUGA were -2.42 ± 0.11 and -1.25 ± 0.1.
As for GGCUAGCAAUAUUACGCGGC, the “self-splicing fitness (ln)” value by setting is: (30 °C) -3.55 ± 0.43; (37 °C) -2.19 ± 0.46.
For UUAGAGCAAUAUUACGGUCU the same measures were -3.05 ± 0.41 and -2.66 ± 0.48.
Taken in the same sequence, the figures for CAAUAGCAAUAUUACGGUAG were -1.34 ± 0.097 and -0.488 ± 0.1.
For AUCCAGCAAUAUUACGCCUU the same measures were -0.818 ± 0.067 and -0.214 ± 0.082.
In the case of CUUCAGCAAUAUUACGUUGC, the “self-splicing fitness (ln)” value is -4.23 ± 0.3 (30 °C) and -3.04 ± 0.25 (37 °C).
With GUUUAGCAAUAUUACGCUAU, the “self-splicing fitness (ln)” value (37 °C) is -1.56 ± 0.29.
With ACCUAGCAAUAUUACGGCCU, the “self-splicing fitness (ln)” value (30 °C) is -0.404 ± 0.069 and the “self-splicing fitness (ln)” value (37 °C) is -0.963 ± 0.075.
For AUUAAGCAAUAUUACGCUCA the same measures were -0.292 ± 0.068 and -0.258 ± 0.091.
Taken in the same sequence, the figures for CUCCAGCAAUAUUACGUAGU were -3.75 ± 0.19 and -2.89 ± 0.22.
For CGUUAGCAAUAUUACGCACC the same measures were -1.94 ± 0.35 and -1.79 ± 0.48.
On to AUGAAGCAAUAUUACGAUAA, for which the “self-splicing fitness (ln)” value (30 °C) was -0.381 ± 0.077 and the “self-splicing fitness (ln)” value (37 °C) is -0.287 ± 0.085.
For UGGAAGCAAUAUUACGAUUC, the “self-splicing fitness (ln)” value (30 °C) was -3.18 ± 0.3.
On to AACCAGCAAUAUUACGCAGC, for which the “self-splicing fitness (ln)” value is -2.4 ± 0.11 (30 °C) and -1.29 ± 0.11 (37 °C).
Taken in the same sequence, the figures for UUGGAGCAAUAUUACGAUGU were -1.71 ± 0.44 and -1.83 ± 0.35.
As for UGCGAGCAAUAUUACGUUAU, the “self-splicing fitness (ln)” value (37 °C) was -3.11 ± 0.4.
Regarding AAUCAGCAAUAUUACGACCG, the “self-splicing fitness (ln)” value was -0.959 ± 0.098 (30 °C) and -0.795 ± 0.11 (37 °C).
Taken in the same sequence, the figures for UGUCAGCAAUAUUACGAUCC were -1.48 ± 0.086 and -0.717 ± 0.089.
As for CGUGAGCAAUAUUACGUAGC, the “self-splicing fitness (ln)” value is -1.15 ± 0.34 (30 °C) and -1.28 ± 0.35 (37 °C).
Taken in the same sequence, the figures for ACACAGCAAUAUUACGCUCC were -1.47 ± 0.078 and -0.566 ± 0.1.
For GGAAAGCAAUAUUACGCGUA the same measures were -1.45 ± 0.14 and -1.52 ± 0.13.
For GCCAAGCAAUAUUACGCCCU the same measures were -1.4 ± 0.13 and -0.504 ± 0.16.
